From US20200338203A1 (Bicycle, published 2020)
Numbered stars: 1 amine (or outer) side, 2 acyl side, 3 side chain; on linkers, the order of the positions; unused ones are H or OH. Bridge positions count the residues as written; N and C are the ends. Square brackets hold non-standard residues; d marks the D form. Ends that are not written are not given here. ThiAz = 3-(1,2,4-triazol-1-yl)-alanine, O=C([C@H](Cn1cncn1)N[*:1])[*:2]; Ala(2-furyl) = N[C@@H](Cc1ccco1)C(=O)O; 1Nal = N[C@@H](Cc1cccc2ccccc12)C(=O)O; TBMB = c1c(C[*:1])cc(C[*:3])cc1C[*:2]; hArg = N=C(N)NCCCC[C@H](N)C(=O)O; Tle = CC(C)(C)[C@H](N)C(=O)O; Pip = O=C(O)[C@@H]1CCCCN1; Aze = O=C(O)[C@@H]1CCN1; Aib = CC(C)(N)C(=O)O; azaGly = NNC(=O)O; βAla = NCCC(=O)O; Sar = CNCC(=O)O

The binders below were run against T1, Human EphA2 (Ecto) (Human, UniProt P29317 24-537) (assay: FP competition; competitor Compound 18).
T1 construct: extracellular domain
Experimental: (§1) Peptides without a fluorescent tag were tested in competition with a peptide with a fluorescent tag and a known Kd (Table 2). Peptides were diluted to an appropriate concentration in assay buffer as described in the direct binding assay with a maximum of 5% DMSO, then serially diluted 1 in 2. Five μL of diluted peptide was added to the plate followed by 10 μL of human or mouse EphA2 (Table 1) at a fixed concentration which was dependent on the fluorescent peptide used (Table 2), then 10 μL fluorescent peptide added. Measurements were conducted as for the direct binding assay, however the gain was determined prior to the first measurement.

T1 sequence (P29317 24-537): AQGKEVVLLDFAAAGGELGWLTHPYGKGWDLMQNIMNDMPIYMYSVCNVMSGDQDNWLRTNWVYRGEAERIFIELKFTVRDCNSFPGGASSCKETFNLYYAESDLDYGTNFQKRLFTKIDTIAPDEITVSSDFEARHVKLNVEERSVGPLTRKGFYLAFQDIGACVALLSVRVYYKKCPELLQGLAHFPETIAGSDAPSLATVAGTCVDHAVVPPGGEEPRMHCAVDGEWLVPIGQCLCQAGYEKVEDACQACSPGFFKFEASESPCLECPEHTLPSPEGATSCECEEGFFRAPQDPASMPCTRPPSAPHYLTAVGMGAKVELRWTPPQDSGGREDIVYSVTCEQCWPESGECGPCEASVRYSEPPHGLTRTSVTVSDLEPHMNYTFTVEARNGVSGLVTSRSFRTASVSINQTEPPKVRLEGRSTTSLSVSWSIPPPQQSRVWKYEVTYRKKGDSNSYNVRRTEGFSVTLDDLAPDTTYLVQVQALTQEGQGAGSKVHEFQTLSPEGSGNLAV

Row | Binder | Ki [nM]
1 | [Sar][Sar]A[ThiAz]DVPCPWGPFWCPVNRPGC (linker 8-15-22 via TBMB) [Compound 202] | 0.7
2 | [Sar][Sar]A[Ala(2-furyl)]DVPCPWGPFWCPVNRPGC (linker 8-15-22 via TBMB) [Compound 203] | 0.49
3 | Ac-[Sar][Sar]A[dH]D[Tle]PCPWGPFWCPVNRPGC (linker 8-15-22 via TBMB) [Compound 204] | 2.15
4 | [Sar][Sar]AH[dA]VPCPWGPFWCPVNRPGC (linker 8-15-22 via TBMB) [Compound 206] | 8.3
5 | [Sar][Sar]AH[dE]VPCPWGPFWCPVNRPGC (linker 8-15-22 via TBMB) [Compound 208] | 2
6 | [Sar][Sar]AH[dD]VPCPWGPFWCPVNRPGC (linker 8-15-22 via TBMB) [Compound 209] | 1.25
7 | Ac-[Sar][Sar]AH[dD]VPCPWGPFWCPVNRPGC (linker 8-15-22 via TBMB) [Compound 210] | 1.1
8 | Ac-[Sar][Sar]AH[dD][Tle]PCPWGPFWCPVNRPGC (linker 8-15-22 via TBMB) [Compound 211] | 3.1
9 | Ac-[Sar][Sar]AH[dD]V[Sar]CPWGPFWCPVNRPGC (linker 8-15-22 via TBMB) [Compound 212] | 4.95
10 | Ac-[Sar][Sar]AH[dD]V[Aib]CPWGPFWCPVNRPGC (linker 8-15-22 via TBMB) [Compound 213] | 1.9
11 | [Sar][Sar]AHD[dA]PCPWGPFWCPVNRPGC (linker 8-15-22 via TBMB) [Compound 215] | 26
12 | [Sar][Sar]AHD[Aib]PCPWGPFWCPVNRPGC (linker 8-15-22 via TBMB) [Compound 216] | 2.77
13 | [Sar][Sar]AHD[Tle]PCPWGPFWCPVNRPGC (linker 8-15-22 via TBMB) [Compound 217] | 0.49
14 | [Sar][Sar]AHDV[dA]CPWGPFWCPVNRPGC (linker 8-15-22 via TBMB) [Compound 219] | 15
15 | [Sar][Sar]AHDV[Aib]CPWGPFWCPVNRPGC (linker 8-15-22 via TBMB) [Compound 220] | 0.83
16 | [Sar][Sar]AHDV[Aze]CPWGPFWCPVNRPGC (linker 8-15-22 via TBMB) [Compound 221] | 3.1
17 | [Sar][Sar]AHDV[Pip]CPWGPFWCPVNRPGC (linker 8-15-22 via TBMB) [Compound 222] | 3.4
18 | [βAla][Sar][Sar][Sar][Sar][Sar][Sar][Sar][Sar][Sar][Sar]HDVPCPWGPFWCPVNRPGC (linker 16-23-30 via TBMB) [Compound 223] | 1.29
19 | Ac-[Sar][Sar][dH]DVPCPWGPFWCPVNRPGC (linker 7-14-21 via TBMB) [Compound 224] | 1.09

Row | Binder | Ki [nM]
20 | [βAla][Sar][Sar][Sar][Sar][Sar][Sar][Sar][Sar][Sar][Sar]H[dD]VPCPWGPFWCPVNRPGC (linker 16-23-30 via TBMB) [Compound 226] | 0.84
21 | Ac-[Sar][Sar]AH[dD]VPCP[1Nal]GPFWCP[Tle]N[hArg]PGC (linker 8-15-22 via TBMB) [Compound 227] | 0.75
22 | Ac-[Sar][Sar]A[dH]DVPCPWGPFWCP[hArg]NRPGC (linker 8-15-22 via TBMB) [Compound 229] | 5.1
23 | Ac-[Sar][Sar]A[dH]DVPCP[1Nal]GPFWCP[Tle]N[hArg]PGC (linker 8-15-22 via TBMB) [Compound 230] | 1.8
24 | Ac-[Sar][Sar]A[dH]DVPCPWG[Aib]FWCP[Tle]NR[Aib]GC (linker 8-15-22 via TBMB) [Compound 233] | 4.8
25 | [βAla][Sar][Sar][Sar][Sar][Sar][Sar][Sar][Sar][Sar][Sar]H[dD]VPCP[1Nal]G[Aib]F[1Nal]CP[Tle]NRPGC (linker 16-23-30 via TBMB) [Compound 252] | 0.37
26 | Ac-[Sar][Sar]H[dD]VPCP[1Nal]G[Aib]F[1Nal]CPVNR[Aib]GC (linker 7-14-21 via TBMB) [Compound 261] | 0.63
27 | Ac-[Sar][Sar]H[dD]VPCP[1Nal]G[Aib]FWCPVNR[Aib]GC (linker 7-14-21 via TBMB) [Compound 266] | 1.6
28 | Ac-[Sar][Sar]H[dD]VPCPW[azaGly]PFWCPVNRPGC (linker 7-14-21 via TBMB) [Compound 267] | 0.66
29 | Ac-[Sar][Sar]H[dD]VPCPWG[Aib]F[1Nal]CPVNR[Aib]GC (linker 7-14-21 via TBMB) [Compound 268] | 1.24
30 | Ac-[Sar][Sar]H[dD]VPCPWG[Aib]FWCP[Tle]NR[Aib]GC (linker 7-14-21 via TBMB) [Compound 270] | 1.52
31 | [βAla][Sar][Sar][Sar][Sar][Sar][Sar][Sar][Sar][Sar][Sar]H[dD]VPCPWG[Aib]FWCP[Tle]N[hArg]P[dD]C (linker 16-23-30 via TBMB) [Compound 271] | 3.66
32 | [βAla][Sar][Sar][Sar][Sar][Sar][Sar][Sar][Sar][Sar][Sar]H[dD]VPCPWGP[hArg]WCP[Tle]N[hArg]P[dD]C (linker 16-23-30 via TBMB) [Compound 272] | 3.99
33 | Ac-[Sar][Sar]A[dD]DVTCP[1Nal]GPFWCPVNRPGC (linker 8-15-22 via TBMB) [Compound 282] | 0.87
34 | Ac-[Sar][Sar]A[dD]DVTCP[1Nal]GPF[1Nal]CPVNRPGC (linker 8-15-22 via TBMB) [Compound 283] | 0.28
35 | Ac-[Sar][Sar]A[dD]DVTCP[1Nal]G[Aib]FWCP[Tle]N[hArg]PGC (linker 8-15-22 via TBMB) [Compound 284] | 3.8
36 | AGEMACPWGPFWCPVNRPGCA (linker 6-13-20 via TBMB) [Compound 53] | 12.3
37 | AHDVPCPWGPFWCPVNRPGCA (linker 6-13-20 via TBMB) [Compound 59] | 0.54

The binders below were run against T1, Human EphA2 (Ecto) (assay: FP competition; competitor Compound 66).
Experimental: as §1

Row | Binder | Ki [nM]
38 | ACPWGPMWCPVNRPGCA (linker 2-9-16 via TBMB) [Compound 46] | 95.8
39 | ACMNDWLCSLGWTCA (linker 2-8-14 via TBMB) [Compound 24] | 82.3
40 | ACMNDWLCQLGWTCA (linker 2-8-14 via TBMB) [Compound 30] | 56
41 | [Sar][Sar]ACPWGPYWCPVNRPGC (linker 4-11-18 via TBMB) [Compound 91] | 138
42 | [Sar][Sar]ACPWGPFWCPVNR[dA]GC (linker 4-11-18 via TBMB) [Compound 105] | 471
43 | ACRVSPEYCPFGPVWCA (linker 2-9-16 via TBMB) [Compound 33] | 78.5
44 | ACRVSPEYCPFGPSWCA (linker 2-9-16 via TBMB) [Compound 36] | 40.5
45 | ACRVSPEYCPFGPEWCA (linker 2-9-16 via TBMB) [Compound 37] | 61.2
46 | ACRVSPEYCPFGPYWCA (linker 2-9-16 via TBMB) [Compound 38] | 26.5
